Drawing on US20200338203A1 (Bicycle, published 2020), this text covers Kd and Ki for 17 molecules.

Like-named read-outs stand apart in the source and are kept apart here. Numbered stars: 1 amine (or outer) side, 2 acyl side, 3 side chain; on linkers, the order of the positions; unused ones are H or OH. Bridge positions count the residues as written; N and C are the ends. Square brackets hold non-standard residues; d marks the D form. Ends that are not written are not given here. DM1 = thiol-containing maytansine derivative (cytotoxic agent); AlexaFluor488 = AlexaFluor488 fluorescent dye label; disulphide linker of formula (B) = not defined here; K(FI) = lysine carrying a fluorescein label (FI); 1Nal = N[C@@H](Cc1cccc2ccccc12)C(=O)O; TBMB = c1c(C[*:1])cc(C[*:3])cc1C[*:2]; Gly(cPent) = N[C@H](C(=O)O)C1CCCC1; hArg = N=C(N)NCCCC[C@H](N)C(=O)O; Tle = CC(C)(C)[C@H](N)C(=O)O; AF488 = AlexaFluor488 label; Aib = CC(C)(N)C(=O)O; βAla = NCCC(=O)O; Sar = CNCC(=O)O

One experiment has as its target rat EphA2 (Rat, UniProt D3ZBN3 27-205). Put plainly: FP direct binding, selectivity. As to the method:
(§1) The gain used for analysis was determined for each tracer at the end of the 60 minutes where there was no protein in the well. Data was analysed using Systat Sigmaplot version 12.0. mP values were fit to a user defined quadratic equation to generate a Kd value: f=ymin+(ymax−ymin)/Lig*((x+Lig+Kd)/2-sqrt((((x+Lig+Kd)/2)\hat{ }2)−(Lig*x))). “Lig” was a defined value of the concentration of tracer used.

The target in another experiment is T1, mouse EphA2 (Mouse, UniProt Q03145 26-538).
T1 construct: extracellular domain; C-terminal polyHis; also called EphA2 (Ecto), Mouse
T1 sequence (Q03145 26-538): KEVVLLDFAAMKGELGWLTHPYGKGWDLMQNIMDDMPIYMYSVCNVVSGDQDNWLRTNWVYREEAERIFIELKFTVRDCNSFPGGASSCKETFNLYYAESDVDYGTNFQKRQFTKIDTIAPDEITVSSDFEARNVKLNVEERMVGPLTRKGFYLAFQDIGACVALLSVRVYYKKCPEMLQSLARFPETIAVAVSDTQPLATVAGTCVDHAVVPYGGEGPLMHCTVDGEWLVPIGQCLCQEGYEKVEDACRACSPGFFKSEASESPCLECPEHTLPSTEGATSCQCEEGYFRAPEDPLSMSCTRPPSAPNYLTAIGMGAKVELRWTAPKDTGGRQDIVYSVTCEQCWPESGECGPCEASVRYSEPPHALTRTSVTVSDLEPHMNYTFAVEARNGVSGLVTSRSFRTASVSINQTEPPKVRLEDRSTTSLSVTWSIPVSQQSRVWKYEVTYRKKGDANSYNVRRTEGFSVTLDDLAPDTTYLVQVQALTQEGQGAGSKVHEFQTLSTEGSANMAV
As to the kind of experiment: FP direct binding, selectivity. As to the method: as §1

The target in experiment [1] is T2, Mouse EphA2 (Ecto) (Mouse, UniProt Q03145 26-538).
T2 construct: extracellular domain; not shown: Fc fusion or C-terminal polyHis
T2 sequence (Q03145 26-538): as above
As to the kind of experiment: FP direct binding.

The target in experiment [2] is T3, Human EphA2 (Ecto) (Human, UniProt P29317 24-537).
T3 construct: extracellular domain
T3 sequence (P29317 24-537): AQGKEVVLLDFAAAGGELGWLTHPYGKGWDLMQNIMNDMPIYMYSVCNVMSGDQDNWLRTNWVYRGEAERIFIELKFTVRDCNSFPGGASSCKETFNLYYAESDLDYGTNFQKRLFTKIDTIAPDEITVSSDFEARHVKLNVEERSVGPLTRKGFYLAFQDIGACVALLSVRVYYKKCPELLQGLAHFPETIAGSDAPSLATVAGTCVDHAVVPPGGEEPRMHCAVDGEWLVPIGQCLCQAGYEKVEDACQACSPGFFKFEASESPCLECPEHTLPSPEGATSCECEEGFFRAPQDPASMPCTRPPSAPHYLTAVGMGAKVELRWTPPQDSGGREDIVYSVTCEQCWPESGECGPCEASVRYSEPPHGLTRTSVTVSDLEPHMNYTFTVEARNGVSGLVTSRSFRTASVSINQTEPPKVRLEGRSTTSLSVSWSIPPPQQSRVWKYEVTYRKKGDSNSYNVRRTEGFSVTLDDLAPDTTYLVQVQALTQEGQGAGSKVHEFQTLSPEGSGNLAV
As to the kind of experiment: FP direct binding.

The target of the next experiment is dog EphA2 (Dog). Put plainly: FP direct binding, selectivity.
The target of another experiment is rat EphA3 (Rat) (UniProt O08680). Put plainly: FP direct binding, selectivity.
Chain of rat EphA3 (Rat) (O08680 21-541): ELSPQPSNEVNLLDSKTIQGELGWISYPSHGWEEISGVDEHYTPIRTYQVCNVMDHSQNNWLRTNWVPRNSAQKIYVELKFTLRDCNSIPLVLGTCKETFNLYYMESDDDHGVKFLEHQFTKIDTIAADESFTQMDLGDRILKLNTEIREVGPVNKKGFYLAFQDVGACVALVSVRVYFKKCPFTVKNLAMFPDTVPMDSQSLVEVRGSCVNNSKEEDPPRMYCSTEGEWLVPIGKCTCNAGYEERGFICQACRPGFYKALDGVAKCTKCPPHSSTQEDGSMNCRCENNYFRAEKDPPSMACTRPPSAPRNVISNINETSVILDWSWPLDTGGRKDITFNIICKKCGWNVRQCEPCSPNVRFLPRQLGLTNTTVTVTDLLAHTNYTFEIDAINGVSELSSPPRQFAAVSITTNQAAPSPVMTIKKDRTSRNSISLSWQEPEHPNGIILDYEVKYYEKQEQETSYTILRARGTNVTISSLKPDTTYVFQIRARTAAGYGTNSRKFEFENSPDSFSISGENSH
The next experiment has as its target human EphA4 (Human) (UniProt P54764). As to the kind of experiment: FP direct binding, selectivity.
The target of experiment [3] is rat & mouse EphA4 (rat & mouse) (UniProt D3ZZK3). Put plainly: FP direct binding, selectivity.
In experiment [4] the target is T3, Human EphA2 (Ecto). Put plainly: FP competition; competitor Compound 12. As to the method:
(§2) Peptides without a fluorescent tag were tested in competition with a peptide with a fluorescent tag and a known Kd (Table 2). Peptides were diluted to an appropriate concentration in assay buffer as described in the direct binding assay with a maximum of 5% DMSO, then serially diluted 1 in 2. Five μL of diluted peptide was added to the plate followed by 10 μL of human or mouse EphA2 (Table 1) at a fixed concentration which was dependent on the fluorescent peptide used (Table 2), then 10 μL fluorescent peptide added. Measurements were conducted as for the direct binding assay, however the gain was determined prior to the first measurement.

In experiment [5] the target is T3, Human EphA2 (Ecto). Put plainly: FP competition; competitor Compound 66. As to the method:
as §2

For experiment [6], the target named is T3, Human EphA2 (Ecto). Put plainly: FP competition; competitor Compound 1. As to the method: as §2
The target in another experiment is dog EphA2 (Dog, UniProt A0A286R219 28-206). As to the kind of experiment: FP direct binding, selectivity. As to the method:
as §1

The target in the next experiment is T4, rat EphB1 (Rat, UniProt P09759 18-540).
T4 construct: extracellular domain; also called EphB1 (Ecto), Rat
T4 sequence (looked up): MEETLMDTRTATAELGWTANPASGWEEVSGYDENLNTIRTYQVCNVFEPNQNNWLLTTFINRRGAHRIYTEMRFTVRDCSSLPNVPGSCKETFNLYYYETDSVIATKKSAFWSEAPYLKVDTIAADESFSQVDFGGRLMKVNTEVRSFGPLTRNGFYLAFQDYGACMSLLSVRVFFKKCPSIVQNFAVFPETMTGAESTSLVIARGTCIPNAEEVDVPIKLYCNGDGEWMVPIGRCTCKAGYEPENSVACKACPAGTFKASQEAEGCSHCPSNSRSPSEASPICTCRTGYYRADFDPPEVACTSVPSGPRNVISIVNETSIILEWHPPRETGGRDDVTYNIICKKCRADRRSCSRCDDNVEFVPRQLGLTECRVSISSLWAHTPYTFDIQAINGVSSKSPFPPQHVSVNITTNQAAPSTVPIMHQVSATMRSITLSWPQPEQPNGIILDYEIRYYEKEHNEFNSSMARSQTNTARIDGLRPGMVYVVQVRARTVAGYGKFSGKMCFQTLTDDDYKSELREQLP
As to the kind of experiment: FP direct binding, selectivity. As to the method:
as §1

The next experiment addresses T5, Human EphA1 (Human, UniProt P21709 26-547).
T5 construct: extracellular domain; also called EphA1 (Ecto), Human
T5 sequence (looked up): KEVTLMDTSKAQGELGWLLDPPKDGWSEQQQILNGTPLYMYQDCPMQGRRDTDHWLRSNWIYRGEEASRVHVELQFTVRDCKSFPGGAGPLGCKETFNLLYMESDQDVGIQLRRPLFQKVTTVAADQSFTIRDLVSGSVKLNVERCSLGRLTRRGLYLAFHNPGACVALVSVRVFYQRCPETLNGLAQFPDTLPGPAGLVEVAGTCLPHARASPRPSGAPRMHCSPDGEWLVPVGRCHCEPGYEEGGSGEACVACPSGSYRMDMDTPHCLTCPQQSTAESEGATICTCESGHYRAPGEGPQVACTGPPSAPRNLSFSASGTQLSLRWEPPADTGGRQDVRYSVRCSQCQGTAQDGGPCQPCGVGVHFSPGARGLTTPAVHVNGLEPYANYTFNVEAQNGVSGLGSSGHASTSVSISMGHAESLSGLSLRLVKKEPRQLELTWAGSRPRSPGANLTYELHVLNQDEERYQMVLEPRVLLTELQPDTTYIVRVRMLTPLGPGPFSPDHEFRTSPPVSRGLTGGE
As to the kind of experiment: FP direct binding, selectivity. The procedure: as §1

The target of experiment [7] is Human & mouse EphA3 (Human & mouse) (UniProt P29320). Put plainly: FP direct binding, selectivity.
Chain of Human & mouse EphA3 (Human & mouse) (P29320 21-541): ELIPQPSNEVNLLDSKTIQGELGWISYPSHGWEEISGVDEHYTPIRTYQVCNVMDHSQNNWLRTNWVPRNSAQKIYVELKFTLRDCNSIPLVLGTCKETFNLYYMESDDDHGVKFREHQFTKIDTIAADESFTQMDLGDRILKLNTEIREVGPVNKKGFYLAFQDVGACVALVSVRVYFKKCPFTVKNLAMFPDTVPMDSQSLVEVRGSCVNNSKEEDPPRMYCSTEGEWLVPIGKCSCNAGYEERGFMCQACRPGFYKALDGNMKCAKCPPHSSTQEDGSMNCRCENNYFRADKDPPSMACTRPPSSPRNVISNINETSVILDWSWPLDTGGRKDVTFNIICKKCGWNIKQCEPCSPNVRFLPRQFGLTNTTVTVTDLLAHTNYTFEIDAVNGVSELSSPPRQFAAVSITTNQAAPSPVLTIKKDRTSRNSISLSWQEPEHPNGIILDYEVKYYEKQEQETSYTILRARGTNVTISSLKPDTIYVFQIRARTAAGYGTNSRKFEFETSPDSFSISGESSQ
Experiment [8] deals with T2, Mouse EphA2 (Ecto). As to the kind of experiment: FP direct binding. The procedure:
as §1
This is another data set of the same source.

Experiment [9] has as its target T3, Human EphA2 (Ecto). Put plainly: FP direct binding. As to the method:
as §1
The source holds these as a separate data set.

The target of the next experiment is T6, Human EphA2 (Human, UniProt P29317 24-537).
T6 construct: extracellular domain; also called EphA2 (Ecto), Human
T6 sequence (P29317 24-537): as the sequence (P29317 24-537) above
As to the kind of experiment: FP competition; competitor: fluorescent Compound 12. As to the method:
as §2

Chain of human EphA4 (Human) (P54764 20-547): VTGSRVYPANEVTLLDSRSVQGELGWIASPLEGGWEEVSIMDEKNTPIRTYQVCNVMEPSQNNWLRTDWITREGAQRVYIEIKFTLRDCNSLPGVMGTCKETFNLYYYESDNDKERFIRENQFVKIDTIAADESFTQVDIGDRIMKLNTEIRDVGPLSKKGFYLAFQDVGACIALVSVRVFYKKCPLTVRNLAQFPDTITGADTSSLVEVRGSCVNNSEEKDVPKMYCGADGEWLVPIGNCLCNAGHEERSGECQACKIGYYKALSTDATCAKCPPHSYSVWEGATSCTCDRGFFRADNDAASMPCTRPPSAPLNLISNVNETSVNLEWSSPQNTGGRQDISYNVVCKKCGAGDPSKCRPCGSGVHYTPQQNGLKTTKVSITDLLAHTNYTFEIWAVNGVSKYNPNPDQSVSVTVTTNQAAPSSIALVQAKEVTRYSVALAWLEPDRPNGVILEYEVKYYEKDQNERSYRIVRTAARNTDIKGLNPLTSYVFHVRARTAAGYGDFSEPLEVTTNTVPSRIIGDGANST

Regarding {AF488-βAla}-[Sar][Sar][Sar][Sar][Sar][Sar][Sar][Sar][Sar][Sar]H[dD]VPC[Aib][1Nal]G[Aib]F[1Nal]CP[Tle]NR[Aib][dD]C (linker 15-22-29 via TBMB) [Compound 141], the dissociation constant Kd with rat EphA2 was 0.00233 µM; with mouse EphA2 it was 0.0065 µM; in the experiment with Mouse EphA2 (Ecto) [1] it was 0.0065 µM; with Human EphA2 (Ecto) [2], 0.00265 µM; in the experiment with dog EphA2 (Dog) it was 0.0133 µM; with rat EphA3 (Rat), 0.137 µM. For the same molecule, the results for the Kd (with human EphA4 (Human); in experiment [3]) were 238 µM and 1.89 µM, respectively.

For the molecule ACVPQGIWCALQFEPCA (linker 2-9-16 via TBMB) [Compound 63], the Ki stood at 0.0922 µM in the experiment with Human EphA2 (Ecto) [4], 0.0825 µM in the experiment with Human EphA2 (Ecto) [5] and 0.144 µM with Human EphA2 (Ecto) [6].

On to {AF488-βAla}-[Sar][Sar][Sar][Sar][Sar][Sar][Sar][Sar][Sar][Sar]H[dD]VPCPWGPFWCPVNRPGCA (linker 15-22-29 via TBMB, bicyclic peptide, fluorescent), for which the Kd with rat EphA2 stood at 0.00036 µM; with mouse EphA2 it was 0.0008 µM; with dog EphA2, 0.00217 µM.

With ADVTCPWGPFWCPVNRPGCA (N-terminal Fl-G-Sar5 before the entry; three Cys cyclised on TBMB, bicyclic peptide, fluorescent) [Compound 18], the Kd with rat EphA2 came to 0.00172 µM; in the experiment with mouse EphA2 it was 0.00402 µM; with dog EphA2 it was 0.00357 µM; in the experiment with rat EphB1, 1.42 µM.

Regarding {AF488-βAla}-[Sar][Sar][Sar][Sar][Sar][Sar][Sar][Sar][Sar][Sar]H[dD]VPCP[1Nal]G[Aib]F[1Nal]CP[Tle]NR[Aib]GC (linker 15-22-29 via TBMB) [Compound 144], the Kd came out at 1.71 µM with Human EphA1; 0.00125 µM with rat EphA2; 0.00256 µM in the experiment with mouse EphA2; 1.44 µM with rat EphB1; 0.00256 µM with Mouse EphA2 (Ecto) [1]; 0.00104 µM with Human EphA2 (Ecto) [2]. Further, the Kd was found to be 0.166 µM in experiment [7] and 0.00439 µM in the experiment with dog EphA2 (Dog).

For the molecule {AF488-βAla}-[Sar][Sar][Sar][Sar][Sar][Sar][Sar][Sar][Sar][Sar]H[dD]VPCPWGPFWCPVNRPGCA (linker 15-22-29 via TBMB), the results for the Kd in the experiment with Mouse EphA2 (Ecto) [8] and in the experiment with Human EphA2 (Ecto) [9] were 0.0008 µM and 0.00031 µM, respectively.

For the molecule {AF488-βAla}-[Sar][Sar][Sar][Sar][Sar][Sar][Sar][Sar][Sar][Sar]H[dD][Gly(cPent)]PCP[1Nal]G[Aib]F[1Nal]CP[Tle]N[hArg]P[dD]C (linker 15-22-29 via TBMB) [Compound 147], the Kd with Human EphA1 stood at 1.22 µM; in the experiment with rat EphA2, 0.00115 µM; in the experiment with mouse EphA2, 0.00344 µM; with Mouse EphA2 (Ecto) [1] it was 0.00344 µM; in the experiment with Human EphA2 (Ecto) [2] it was 0.00107 µM; in experiment [7] it was 0.0825 µM. The Kd in the experiment with dog EphA2 (Dog) is 0.00358 µM; with rat EphA3 (Rat) it was 0.221 µM; with human EphA4 (Human), 7440 µM; in [3], 1000 µM.

B1: BDC-5 (peptide)
peptide: {DM1-disulphide linker of formula (B)-βAla}-[Sar][Sar][Sar][Sar][Sar][Sar][Sar][Sar][Sar][Sar]ACPWAPFWCAVNRPGC
modifications: linker 12-19-26 via TBMB; reading uncertain
notes: DM1 conjugate; also called Bicyclic Peptide Drug Conjugate BDC-5; Compound 303, Formula (B)
With B1, the Ki with Human EphA2 is > 1 µM.

As for {AlexaFluor488-βAla}-[Sar][Sar][Sar][Sar][Sar][Sar][Sar][Sar][Sar][Sar]ACPWGPFWCPVNRPGC (linker 12-19-26 via TBMB, bicyclic peptide, fluorescent) [Compound 68], the Kd in the experiment with rat EphA2 turned out to be 0.0159 µM; with dog EphA2, 0.0319 µM.

For the molecule ACPWGPFWCPVNRPGC (N-terminal AlexaFluor488-G-Sar5 before the entry; three Cys cyclised on TBMB, bicyclic peptide, fluorescent) [Compound 67], the Kd with rat EphA2 is 0.0265 µM; with dog EphA2 it was 0.0614 µM.

As for ACPWGPFWCPVNRPGCA (N-terminal Fl-G-Sar5 before the entry; three Cys cyclised on TBMB, bicyclic peptide, fluorescent) [Compound 66], the Kd worked out at 1.18 µM in the experiment with Human EphA1 and 2.27 µM with rat EphB1.

As to ACTTGSIWCALQFEPCA (linker 2-9-16 via TBMB) [Compound 64], the Ki in the experiment with Human EphA2 (Ecto) [4] turned out to be 0.41 µM; with Human EphA2 (Ecto) [5], 0.0634 µM.

For the molecule ACPWGPAWCPVNRPGCAGAAA (linker 2-9-16 via TBMB) [Compound 45], the Ki stood at 0.0992 µM with Human EphA2 (Ecto) [4] and 0.117 µM with Human EphA2 (Ecto) [5].

ACMNDWLCQLGWTCA[Sar][Sar][Sar][Sar][Sar][Sar]-{K(FI)} (linker 2-8-14 via TBMB) [Compound 6]: in the experiment with Human EphA2 (Ecto) [9], binding was characterised by a dissociation constant (Kd) of 0.00425 µM.

ACPWGPAWCPVHGKTCA (linker 2-9-16 via TBMB) [Compound 41]: the Ki with Human EphA2 (Ecto) [6] stood at 0.263 µM.

Take {AF488-βAla}-[Sar][Sar][Sar][Sar][Sar][Sar][Sar][Sar][Sar][Sar]H[dD]VPCP[1Nal]G[Aib]F[1Nal]CP[Tle]NR[Aib][dD]C (linker 15-22-29 via TBMB) [Compound 145]: the Kd with Human EphA1 stood at 7.26 µM; with rat EphA2, 0.001 µM; with mouse EphA2 it was 0.0038 µM; in the experiment with rat EphB1 it was 5.42 µM; in the experiment with Mouse EphA2 (Ecto) [1], 0.0038 µM; with Human EphA2 (Ecto) [2], 0.00217 µM. In addition, the Kd in experiment [7] is 0.129 µM; with dog EphA2 (Dog), 0.00499 µM; in the experiment with rat EphA3 (Rat), 0.297 µM; with human EphA4 (Human), 1.5 µM; in [3], 2.54 µM.

Turning to ACRNIPTMCPFGPVWCA (linker 2-9-16 via TBMB) [Compound 32], the Ki with Human EphA2 (Ecto) [6] amounted to 0.0834 µM.

A word on the Kd: it is the constant that tells how readily two partners part at equilibrium. The term Ki denotes the dissociation constant of the complex between target and ligand, obtained from inhibition or displacement.
